From patent US20120148607A1

Target: c-Met on human cells (HPAF, A549, MKN-45) (human) (UniProt P08581)
Assay: cell-based or functional assay

Chain of c-Met on human cells (HPAF, A549, MKN-45) (human) (P08581 25-1390): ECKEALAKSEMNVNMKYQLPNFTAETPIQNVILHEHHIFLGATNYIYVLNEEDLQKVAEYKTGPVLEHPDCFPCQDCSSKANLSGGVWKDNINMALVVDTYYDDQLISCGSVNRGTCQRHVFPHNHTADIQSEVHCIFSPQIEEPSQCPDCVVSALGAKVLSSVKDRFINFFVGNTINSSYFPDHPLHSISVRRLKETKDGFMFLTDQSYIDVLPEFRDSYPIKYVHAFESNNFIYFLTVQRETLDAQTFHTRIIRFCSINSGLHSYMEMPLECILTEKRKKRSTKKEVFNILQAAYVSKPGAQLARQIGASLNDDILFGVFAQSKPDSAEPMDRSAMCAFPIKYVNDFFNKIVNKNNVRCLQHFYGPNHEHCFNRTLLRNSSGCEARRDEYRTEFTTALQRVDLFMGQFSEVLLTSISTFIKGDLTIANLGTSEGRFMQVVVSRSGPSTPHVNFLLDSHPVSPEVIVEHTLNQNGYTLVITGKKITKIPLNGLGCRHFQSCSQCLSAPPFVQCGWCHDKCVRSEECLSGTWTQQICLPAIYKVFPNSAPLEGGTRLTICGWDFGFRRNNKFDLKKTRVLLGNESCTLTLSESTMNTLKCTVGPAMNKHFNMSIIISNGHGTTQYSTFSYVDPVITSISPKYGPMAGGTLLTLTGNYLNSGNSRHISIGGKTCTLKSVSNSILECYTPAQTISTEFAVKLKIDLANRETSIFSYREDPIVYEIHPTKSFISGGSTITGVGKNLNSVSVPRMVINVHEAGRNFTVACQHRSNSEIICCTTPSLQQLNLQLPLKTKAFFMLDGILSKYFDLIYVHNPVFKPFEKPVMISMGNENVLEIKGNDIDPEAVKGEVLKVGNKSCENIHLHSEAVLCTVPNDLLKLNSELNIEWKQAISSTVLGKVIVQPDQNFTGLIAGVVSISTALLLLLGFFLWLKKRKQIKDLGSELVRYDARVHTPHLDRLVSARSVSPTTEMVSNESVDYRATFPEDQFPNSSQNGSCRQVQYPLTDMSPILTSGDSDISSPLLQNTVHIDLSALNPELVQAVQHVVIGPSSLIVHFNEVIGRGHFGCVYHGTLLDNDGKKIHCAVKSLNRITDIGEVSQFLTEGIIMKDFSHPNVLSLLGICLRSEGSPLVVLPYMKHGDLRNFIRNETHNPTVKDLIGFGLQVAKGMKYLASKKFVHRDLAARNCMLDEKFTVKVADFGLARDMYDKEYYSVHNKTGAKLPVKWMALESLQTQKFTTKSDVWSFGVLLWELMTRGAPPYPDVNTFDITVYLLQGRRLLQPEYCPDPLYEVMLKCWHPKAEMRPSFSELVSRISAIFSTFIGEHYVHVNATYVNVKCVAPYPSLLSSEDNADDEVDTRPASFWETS

down-regulation of total c-Met on the surface of MKN-45 cells (flow cytometry): 50 to 60%
Substance: murine 5D5 antibody
